The text below walks through data of patent US20160015831A1 (BIOALLIANCE C V, published 2016).

The labels stand for the following.
B1: hLL2-T155C-IgG1-Tap18Hr1 (antibody)
heavy: not shown
light: DIQLTQSPSSLSASVGDRVTMSCKSSQSVLYSANHKNYLAWYQQKPGKAPKLLIYWASTRESGVPSRFSGSGSGTDFTFTISSLQPEDIATYYCHQYLSSWTFGGGTKLEIKRTVAAPSVFIFPPSDEQLKSGTASVVCLLNNFYPREAKVQWKVDNALQSGNSQESVTEQDSKDSTYSLSSTLTLSKADYEKHKVYACEVTHQGLSSPVTKSFNRGEC
modifications: Tap18Hr1 linker-drug (monomethyl dolastatin 10) on the introduced Cys 155 (EU numbering); site-specific conjugation, DAR 1.58-2.01
notes: also called hLL2-T155C-IgG1 Tap18Hr1 conjugate
B2: hLL2-T169C-IgG1-Tap18Hr1 (antibody)
heavy: not shown
light: B1 light
modifications: Tap18Hr1 linker-drug (monomethyl dolastatin 10) on the introduced Cys 169 (EU numbering); site-specific conjugation, DAR 1.58-2.01
notes: also called hLL2-T169C-IgG1 Tap18Hr1 conjugate
B3: hLL2-S157C-IgG1-Tap18Hr1 (antibody)
heavy: not shown
light: B1 light
modifications: Tap18Hr1 linker-drug (monomethyl dolastatin 10) on the introduced Cys 157 (EU numbering); site-specific conjugation, DAR 1.58-2.01
notes: also called hLL2-S157C-IgG1 Tap18Hr1 conjugate
B4: hLL2-S442C-IgG1-Tap18Hr1 (antibody)
heavy: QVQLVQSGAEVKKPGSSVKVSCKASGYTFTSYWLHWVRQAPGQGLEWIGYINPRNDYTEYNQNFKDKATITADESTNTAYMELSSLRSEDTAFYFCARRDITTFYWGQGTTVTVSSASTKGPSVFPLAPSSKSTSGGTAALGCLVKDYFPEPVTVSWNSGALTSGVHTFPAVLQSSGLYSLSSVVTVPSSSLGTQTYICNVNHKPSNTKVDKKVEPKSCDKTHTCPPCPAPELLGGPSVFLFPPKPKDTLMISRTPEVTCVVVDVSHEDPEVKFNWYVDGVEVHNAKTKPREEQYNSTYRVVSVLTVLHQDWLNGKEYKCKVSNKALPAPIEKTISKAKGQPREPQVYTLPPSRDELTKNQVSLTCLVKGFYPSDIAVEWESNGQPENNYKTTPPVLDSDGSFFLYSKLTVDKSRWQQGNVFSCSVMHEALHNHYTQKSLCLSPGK
light: B1 light
modifications: Tap18Hr1 linker-drug (monomethyl dolastatin 10) on the introduced Cys 442 (EU numbering); site-specific conjugation, DAR 1.58-2.01
notes: also called hLL2-S442C-IgG1 Tap18Hr1 conjugate
B5: hLL2-S165C-IgG1-Tap18Hr1 (antibody)
heavy: not shown
light: B1 light
modifications: Tap18Hr1 linker-drug (monomethyl dolastatin 10) on the introduced Cys 165 (EU numbering); site-specific conjugation, DAR 1.58-2.01
notes: also called hLL2-S165C-IgG1 Tap18Hr1 conjugate
B6: hLL2-IgG1 (antibody)
heavy: not shown
light: B1 light
notes: also called hLL2-IgG1 Ab; hLL2-wild type antibody
B7: hLL2-IgG4p (antibody)
heavy: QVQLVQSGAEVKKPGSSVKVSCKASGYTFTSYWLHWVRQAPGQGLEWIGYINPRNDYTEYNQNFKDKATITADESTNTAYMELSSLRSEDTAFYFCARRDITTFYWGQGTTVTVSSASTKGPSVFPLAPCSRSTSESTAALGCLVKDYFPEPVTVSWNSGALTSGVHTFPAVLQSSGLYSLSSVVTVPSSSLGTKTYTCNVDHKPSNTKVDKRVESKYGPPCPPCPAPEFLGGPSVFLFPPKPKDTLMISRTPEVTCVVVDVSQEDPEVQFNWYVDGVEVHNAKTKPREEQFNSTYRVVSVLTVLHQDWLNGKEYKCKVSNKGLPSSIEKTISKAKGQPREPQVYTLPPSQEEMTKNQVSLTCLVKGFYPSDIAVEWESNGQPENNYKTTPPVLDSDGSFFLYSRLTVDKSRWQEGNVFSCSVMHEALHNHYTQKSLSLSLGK
light: B1 light
notes: also called hLL2-IgG4p Ab
B8: hLL2-T155C-IgG4p (antibody, name in EU numbering)
heavy: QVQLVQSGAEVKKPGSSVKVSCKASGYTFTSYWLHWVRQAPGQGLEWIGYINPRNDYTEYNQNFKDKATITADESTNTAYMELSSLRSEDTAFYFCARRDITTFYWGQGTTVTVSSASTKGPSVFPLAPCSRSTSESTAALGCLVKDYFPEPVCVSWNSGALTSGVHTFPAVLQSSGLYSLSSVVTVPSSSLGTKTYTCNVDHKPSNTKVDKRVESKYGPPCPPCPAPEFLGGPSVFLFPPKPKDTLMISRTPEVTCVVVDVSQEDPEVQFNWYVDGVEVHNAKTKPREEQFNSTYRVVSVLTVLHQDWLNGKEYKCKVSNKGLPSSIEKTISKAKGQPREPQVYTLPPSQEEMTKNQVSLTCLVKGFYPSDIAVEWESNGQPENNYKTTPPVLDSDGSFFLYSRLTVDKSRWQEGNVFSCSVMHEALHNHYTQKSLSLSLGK
light: B1 light
notes: Position is EU numbering
B9: hLL2-T169C-IgG4p (antibody, name in EU numbering)
heavy: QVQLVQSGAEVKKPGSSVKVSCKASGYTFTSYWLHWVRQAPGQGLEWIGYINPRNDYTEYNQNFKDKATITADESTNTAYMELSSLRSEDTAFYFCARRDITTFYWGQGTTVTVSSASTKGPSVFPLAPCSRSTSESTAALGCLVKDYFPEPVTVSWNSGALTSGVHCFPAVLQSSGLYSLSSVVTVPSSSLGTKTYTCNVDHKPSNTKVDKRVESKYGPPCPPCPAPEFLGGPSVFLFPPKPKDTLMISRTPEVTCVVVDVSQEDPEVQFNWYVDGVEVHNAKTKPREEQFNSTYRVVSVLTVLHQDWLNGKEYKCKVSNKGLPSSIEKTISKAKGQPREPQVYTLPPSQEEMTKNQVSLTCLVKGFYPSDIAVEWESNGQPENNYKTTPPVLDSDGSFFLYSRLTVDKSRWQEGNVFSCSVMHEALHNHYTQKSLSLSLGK
light: B1 light
notes: Position is EU numbering
B10: hLL2-S442C-IgG4p (antibody, name in EU numbering)
heavy: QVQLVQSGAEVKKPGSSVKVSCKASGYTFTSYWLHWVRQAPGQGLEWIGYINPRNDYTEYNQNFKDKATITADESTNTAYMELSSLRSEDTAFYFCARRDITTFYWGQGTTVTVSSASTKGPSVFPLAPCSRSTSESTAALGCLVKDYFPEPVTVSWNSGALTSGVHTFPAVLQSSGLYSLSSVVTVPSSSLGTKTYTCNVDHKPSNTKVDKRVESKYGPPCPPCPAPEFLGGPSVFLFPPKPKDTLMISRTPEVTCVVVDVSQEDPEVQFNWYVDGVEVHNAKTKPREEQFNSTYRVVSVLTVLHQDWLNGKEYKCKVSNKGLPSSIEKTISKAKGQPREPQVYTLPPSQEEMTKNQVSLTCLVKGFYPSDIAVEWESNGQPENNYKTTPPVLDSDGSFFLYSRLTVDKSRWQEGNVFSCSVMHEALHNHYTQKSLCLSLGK
light: B1 light
notes: Position is EU numbering
B11: hLL2-IgG1-Tap18Hr1 (antibody)
heavy: not shown
light: B1 light
modifications: Tap18Hr1 linker-drug on cysteine thiols of the partially reduced antibody (light chain with 0 or 1 drug); sites not stated; Tap18Hr1 linker-drug (monomethyl dolastatin 10) on cysteine thiols of the partially reduced antibody, conventional conjugation, DAR 2.7-3.5; sites not stated
notes: also called Anti-hLL2-IgG1-Tap18Hr1; Anti-CD22 (hLL2)-IgG1-Tap18Hr1
B12: hLL2-S442C-IgG4p-Tap18Hr1 (antibody, name in EU numbering)
heavy: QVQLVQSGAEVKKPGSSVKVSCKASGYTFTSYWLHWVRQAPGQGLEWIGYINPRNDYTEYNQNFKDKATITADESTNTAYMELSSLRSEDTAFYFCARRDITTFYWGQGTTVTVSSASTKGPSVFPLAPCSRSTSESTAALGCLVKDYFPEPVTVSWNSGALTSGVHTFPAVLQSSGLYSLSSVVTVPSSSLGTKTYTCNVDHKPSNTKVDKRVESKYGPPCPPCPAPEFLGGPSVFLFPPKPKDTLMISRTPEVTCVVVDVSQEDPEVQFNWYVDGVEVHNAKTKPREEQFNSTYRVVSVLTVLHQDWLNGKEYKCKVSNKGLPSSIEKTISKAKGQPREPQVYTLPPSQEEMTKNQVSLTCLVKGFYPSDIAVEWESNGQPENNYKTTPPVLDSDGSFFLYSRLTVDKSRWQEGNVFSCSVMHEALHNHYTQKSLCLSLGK
light: B1 light
modifications: Tap18Hr1 linker-drug (monomethyl dolastatin 10) on the introduced Cys 442 (EU numbering); site-specific conjugation, DAR 1.58-2.01
notes: also called hLL2-S442C-IgG4p Tap18Hr1 conjugate
B13: hLL2-T169C-IgG4p-Tap18Hr1 (antibody, name in EU numbering)
heavy: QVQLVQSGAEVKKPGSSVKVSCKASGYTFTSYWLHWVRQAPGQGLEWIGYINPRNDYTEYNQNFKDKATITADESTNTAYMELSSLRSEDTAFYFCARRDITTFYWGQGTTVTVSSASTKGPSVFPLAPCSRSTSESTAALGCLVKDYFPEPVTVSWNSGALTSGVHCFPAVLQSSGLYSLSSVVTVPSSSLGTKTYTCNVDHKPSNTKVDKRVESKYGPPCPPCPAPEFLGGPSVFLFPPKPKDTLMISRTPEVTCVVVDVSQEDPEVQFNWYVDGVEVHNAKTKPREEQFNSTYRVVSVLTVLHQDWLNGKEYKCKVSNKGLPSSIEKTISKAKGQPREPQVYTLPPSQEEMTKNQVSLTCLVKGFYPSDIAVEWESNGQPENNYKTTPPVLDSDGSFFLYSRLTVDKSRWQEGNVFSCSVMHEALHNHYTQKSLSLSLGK
light: B1 light
modifications: Tap18Hr1 linker-drug (monomethyl dolastatin 10) on the introduced Cys 169 (EU numbering); site-specific conjugation, DAR 1.58-2.01
notes: also called hLL2-T169C-IgG4p Tap18Hr1 conjugate
B14: hLL2-T155C-IgG4p-Tap18Hr1 (antibody, name in EU numbering)
heavy: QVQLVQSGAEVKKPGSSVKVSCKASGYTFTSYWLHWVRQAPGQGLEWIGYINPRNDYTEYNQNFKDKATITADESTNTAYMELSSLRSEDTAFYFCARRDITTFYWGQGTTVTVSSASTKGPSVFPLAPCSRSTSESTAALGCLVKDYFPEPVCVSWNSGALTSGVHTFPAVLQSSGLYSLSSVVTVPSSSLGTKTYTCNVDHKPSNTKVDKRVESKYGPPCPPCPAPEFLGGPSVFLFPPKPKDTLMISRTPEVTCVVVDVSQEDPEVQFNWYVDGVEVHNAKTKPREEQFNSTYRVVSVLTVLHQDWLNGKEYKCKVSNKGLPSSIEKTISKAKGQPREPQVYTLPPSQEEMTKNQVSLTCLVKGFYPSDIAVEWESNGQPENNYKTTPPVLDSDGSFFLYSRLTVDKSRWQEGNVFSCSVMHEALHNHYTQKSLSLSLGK
light: B1 light
modifications: Tap18Hr1 linker-drug (monomethyl dolastatin 10) on the introduced Cys 155 (EU numbering); site-specific conjugation, DAR 1.58-2.01
notes: also called hLL2-T155C-IgG4p Tap18Hr1 conjugate
B15: hLL2-T155C-IgG1 (antibody)
heavy: not shown
light: B1 light
notes: Position is EU numbering
B16: hLL2-S157C-IgG1 (antibody)
heavy: not shown
light: B1 light
notes: Position is EU numbering
B17: hLL2-S442C-IgG1 (antibody)
heavy: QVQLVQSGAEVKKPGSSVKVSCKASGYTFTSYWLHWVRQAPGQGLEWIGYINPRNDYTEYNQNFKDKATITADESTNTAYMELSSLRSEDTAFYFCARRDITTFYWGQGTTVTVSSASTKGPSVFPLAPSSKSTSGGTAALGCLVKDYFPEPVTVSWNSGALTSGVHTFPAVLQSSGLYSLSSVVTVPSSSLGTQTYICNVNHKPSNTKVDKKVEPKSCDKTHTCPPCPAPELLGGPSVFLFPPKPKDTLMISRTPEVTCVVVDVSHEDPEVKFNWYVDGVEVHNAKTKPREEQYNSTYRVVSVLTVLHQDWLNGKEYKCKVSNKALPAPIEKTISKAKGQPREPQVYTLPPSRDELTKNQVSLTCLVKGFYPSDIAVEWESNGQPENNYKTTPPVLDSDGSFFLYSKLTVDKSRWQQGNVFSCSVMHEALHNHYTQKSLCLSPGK
light: B1 light
notes: Position is EU numbering
B18: hLL2-T169C-IgG1 (antibody)
heavy: not shown
light: B1 light
notes: Position is EU numbering
B19: hLL2-S165C-IgG1 (antibody)
heavy: not shown
light: B1 light
notes: Position is EU numbering

The first test deals with T1, human CD22 (human, UniProt P20273 20-847). As to the kind of experiment: cell-based or functional assay.
With B1, the “% inhibition, WST-1 cytotoxicity, Daudi cells, 1.1 µg/mL” value (“% inhibition … Daudi cells, 1.1 µg/mL” below) turned out to be 71%; the “% inhibition, WST-1 cytotoxicity, Daudi cells, 3.3 µg/mL” value (shortened to “% inhibition … Daudi cells, 3.3 µg/mL”) came out at 72.6%; the “% inhibition, WST-1 cytotoxicity, Ramos cells, 1.1 µg/mL” value (“% inhibition … Ramos cells, 1.1 µg/mL” for short) came to 84.9%; the “% inhibition, WST-1 cytotoxicity, Ramos cells, 3.3 µg/mL” value (“% inhibition … Ramos cells, 3.3 µg/mL” below) came to 88.9%.
The like results for B2 were, in that order, 69.8%, 73.6%, 85.7% and 91.4%.
Turning to B3, the “% inhibition … Daudi cells, 1.1 µg/mL” value is 76.3%; the “% inhibition … Daudi cells, 3.3 µg/mL” value was determined as 79.4%; the “% inhibition … Ramos cells, 1.1 µg/mL” value was determined as 90.4%; the “% inhibition … Ramos cells, 3.3 µg/mL” value turned out to be 93.9%.
For B4, the “% inhibition … Daudi cells, 1.1 µg/mL” value turned out to be 77.6%; the “% inhibition … Daudi cells, 3.3 µg/mL” value is 79%; the “% inhibition … Ramos cells, 1.1 µg/mL” value was 92%; the “% inhibition … Ramos cells, 3.3 µg/mL” value is 96%.
The like results for B5 were, in that order, 60.5%, 65.1%, 72.6% and 79.4%.

Another test concerns the target T1, human CD22. In words: flow cytometry, REH cells, unconjugated Ab 3.3 µg/mL. The protocol: (§1) 6×10⁴˜1×10⁵ cells were seeded per well in a v-bottomed 96-well plate and incubated with 100 μl of the unconjugated Abs or the ADCs at titrated concentrations or isotype control antibody human IgG at 10 μg/mL. After 30-60 minutes of incubation at 4° C., cells were washed once with 200 μl FACS buffer (lx PBS containing 1% FBS), stained with 100 μl of 1 μg/ml goat F(ab′)2-anti-human IgG (H+L)-RPE (Southern Biotech, Cat. No. 2043-09) in FACS buffer and then incubated at 4° C. for 30˜60 min Cells were washed once with FACS buffer and analyzed by flow cytometer (BD LSR, BD Life Sciences).
(§2) In general, the site-specific conjugated hLL2-IgG4p ADCs retained antigen reactivity of antibody.
B6: the MFI was determined as 139.
B7 came in with an MFI of 81.
The same measure, in the same setting: under B8 stands 79.
The molecule B9 yielded an MFI of 74.
In turn, B10 had an MFI of 70.

The next test has as its target T1, human CD22. As to the kind of experiment: flow cytometry, REH cells, Tap18Hr1 conjugate 3.3 µg/mL. Here is the method:
as §1, §2
For B11, the MFI turned out to be 104.
Still for that read-out and setting: with B12 the figure was 52; with B13, 60.
As to B14, the MFI stood at 66.

A further test has as its target T1, human CD22. As to the kind of experiment: flow cytometry, Daudi cells, unconjugated Ab 3.3 µg/mL. Here is the method:
as §1, §2
For the molecule B6, the MFI came to 1390.
For the molecule B7, the MFI was 792.
B8 had an MFI of 601.
In turn, B9 displayed an MFI of 761.
Same read-out and setting: with B10 the figure was 681.

A further test addresses T1, human CD22. The description is as above. This is another data set of the same source. Here is the method:
as §1
(§3) The binding ability of hLL2-Cys variants with or without drug conjugation was evaluated in Daudi and REH cancer cells.
With B6, the MFI was determined as 1440.
Take B15: the MFI worked out at 1250.
B16 had an MFI of 1300.
Turning to B17, the MFI came to 1150.
On the same count and under the same terms, under B18 stands 1300; under B19, 1310.

The next test addresses T1, human CD22. In words: flow cytometry, Daudi cells, Tap18Hr1 conjugate 3.3 µg/mL. Here is the method: as §1, §3
For the molecule B11, the MFI turned out to be 1400.
In turn, B1 showed an MFI of 1230.
Still for that read-out and setting: with B2 the figure was 1370.
On the same count and under the same terms, with B3 the figure was 1230.
On to B4, for which the MFI came to 914.
Same read-out and setting: with B5 the figure was 1230.

A further test concerns the target T1, human CD22. As to the kind of experiment: cell-based or functional assay. This is another data set of the same source.
In the case of B12, the “% inhibition … Daudi cells, 1.1 µg/mL” value was determined as 65.8%; the “% inhibition … Daudi cells, 3.3 µg/mL” value stood at 70.6%; the “% inhibition, WST-1 cytotoxicity, NALM-6 cells, 10 ug/ml” value (shortened to “% inhibition … NALM-6 cells, 10 ug/ml”) amounted to 28.5%; the “% inhibition, WST-1 cytotoxicity, REH cells, 10 ug/ml” value (“% inhibition … REH cells, 10 ug/ml” for short) is 21.3%. Also, the “% inhibition … Ramos cells, 1.1 µg/mL” value worked out at 86.9% and the “% inhibition … Ramos cells, 3.3 µg/mL” value was found to be 88.9%.
B13: the “% inhibition … Daudi cells, 1.1 µg/mL” value amounted to 67.2%; the “% inhibition … Daudi cells, 3.3 µg/mL” value turned out to be 70.8%; the “% inhibition … NALM-6 cells, 10 ug/ml” value is 68.2%; the “% inhibition … REH cells, 10 ug/ml” value came to 42.6%. Further, the “% inhibition … Ramos cells, 1.1 µg/mL” value came to 89.6% and the “% inhibition … Ramos cells, 3.3 µg/mL” value worked out at 93.3%.
Take B14: the “% inhibition … Daudi cells, 1.1 µg/mL” value came out at 66.2%; the “% inhibition … Daudi cells, 3.3 µg/mL” value came to 70.2%; the “% inhibition … NALM-6 cells, 10 ug/ml” value was 45.3%; the “% inhibition … REH cells, 10 ug/ml” value came to 22.4%. The “% inhibition … Ramos cells, 1.1 µg/mL” value stood at 89.4% and the “% inhibition … Ramos cells, 3.3 µg/mL” value came to 94.9%.

For a further test, the target named is T1, human CD22. As to the kind of experiment: flow cytometry, REH cells, Tap18Hr1 conjugate 3.3 µg/mL. The source holds these as a separate data set. The protocol:
as §1, §3
Consider B11, for which the MFI was 104.
For B3, the MFI is 94.
With B4, the MFI amounted to 87.

The next test has as its target T1, human CD22. As to the kind of experiment: flow cytometry, Daudi cells, Tap18Hr1 conjugate 3.3 µg/mL. This is another data set of the same source. The protocol: as §1, §2
B11: the MFI was 1400.
Molecule B12 came in with an MFI of 481.
B13 showed an MFI of 625.
Molecule B14 had an MFI of 515.
